Experimental data: patent US20240228562A1 (Pieris, published 2024)

B1: lipocalin mutein of SEQ ID NO: 25 (designed binder)
chain: QDSTSDLIPAPPLSKVPLQQNFQDNQFHGKWYVVGMAGNFRLREDKDPSKMGATIYELKEDKSYNVTQVQFDDKKCLYVIETFVPGSQPGEFTLGAIKSFPGFTSQLVRVVSTNYNQHAMVFFKKVYQNREVFWITLYGRTKELTSELKENFIRFSKSLGLPENHIVFPVPIDQCIDGSAWSHPQFEK
notes: Parent hNGAL mutein; also called hNGAL mutein
B2: lipocalin mutein of SEQ ID NO: 15 (designed binder)
chain: QDSTSDLIPAPPLSKVPLQQNFQDNQFQGKWYVVGLAGNAILREDKQPAKMFATIYELKEDKSYDVTSVRFEAKSCKYTIKTFVPGSQPGEFTAGYIKSAPGQTSTLVRVVSTNYNQHAMVFFKHVTQNREIFVITLYGRTKELTSELKENFIRFSKSLGLPENHIVFPVPIDQCIDG
notes: also called hNGAL mutein; not shown: C-terminal His-tag
B3: lipocalin mutein of SEQ ID NO: 29 (designed binder)
chain: QDSTSDLIPAPPLSKVPLQQNFQDNQFHGKWYVVGWAGNIKLREDKDPFKMSATIYELKEDKSYNVTEVVFEQKKCHYIIKTFVPGSQPGEFTLGDIKSPPGETSSLVRVVSTNYNQHAMVFFKKVFQNREFFWITLYGRTKELTSELKENFIRFSKSLGLPENHIVFPVPIDQCIDGSAWSHPQFEK
notes: as for B1
B4: lipocalin mutein of SEQ ID NO: 9 (designed binder)
chain: QDSTSDLIPAPPLSKVPLQQNFQDNQFHGKWYVVGLAGNKILRIDKQPAKMFATIYELKEDKSYDVTSVRFEARSCSYTIKTFVPGSQPGEFTAGNIKSAPGQTSTLVRVVSTNYNQHAMVFFKHVSQNRETFVITLYGRTKELTSELKENFIRFSKSLGLPENHIVFPVPIDQCIDGSAWSHPQFEK
notes: as for B1

Tests used:
[1] = target: T1, mouse CTGF (Abbexa) (mouse, UniProt P29268 26-348, limits assumed); experiment: SPR (Biacore)
T1 construct: also called Murine CTGF; mCTGF
T1 sequence (looked up): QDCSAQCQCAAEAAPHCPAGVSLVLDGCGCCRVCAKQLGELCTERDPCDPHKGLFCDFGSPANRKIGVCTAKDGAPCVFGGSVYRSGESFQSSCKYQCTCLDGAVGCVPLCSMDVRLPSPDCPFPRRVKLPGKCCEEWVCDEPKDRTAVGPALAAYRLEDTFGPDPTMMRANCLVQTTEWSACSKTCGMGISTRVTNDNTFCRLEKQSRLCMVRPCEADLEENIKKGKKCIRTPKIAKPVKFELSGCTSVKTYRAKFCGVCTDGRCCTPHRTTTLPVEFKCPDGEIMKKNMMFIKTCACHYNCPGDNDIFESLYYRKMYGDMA
Method in brief: (§1)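 Lipocalin muteins injected at 25 °C over CTGF either Fc-tagged and captured by anti-human IgG-Fc (0.25-2.5 μg/mL in HBS-EP+, 180 s) or amine-coupled directly to a CM5 chip. Association 180 s, dissociation 900-3600 s, flow 30 μL/min.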

[2] = target: T2, cynomolgus CTGF (cynomolgus, UniProt I7G525 27-349); experiment: SPR (Biacore)
T2 construct: also called cyCTGF
T2 sequence: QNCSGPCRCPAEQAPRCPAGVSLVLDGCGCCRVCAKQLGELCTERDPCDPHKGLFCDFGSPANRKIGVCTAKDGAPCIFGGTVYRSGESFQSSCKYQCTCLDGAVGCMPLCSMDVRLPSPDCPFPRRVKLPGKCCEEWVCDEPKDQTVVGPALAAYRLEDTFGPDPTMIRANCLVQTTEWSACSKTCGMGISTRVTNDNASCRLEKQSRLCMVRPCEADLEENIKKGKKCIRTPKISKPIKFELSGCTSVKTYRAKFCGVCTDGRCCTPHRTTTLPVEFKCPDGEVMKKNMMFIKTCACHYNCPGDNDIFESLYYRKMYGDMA
Method in brief: as §1

| Binder | binding result [1] | Kd [2] [nM] | koff [2] [s⁻¹] | kon [2] [M⁻¹ s⁻¹] | Kd [1] [nM] | koff [1] [s⁻¹] | kon [1] [M⁻¹ s⁻¹] |
| --- | --- | --- | --- | --- | --- | --- | --- |
| B1 | no binding (tested: typically 0.43-2000 nM) | – | – | – | – | – | – |
| B2 | – | 0.707 | 7.57e-05 | 107000 | 0.349 | 4.51e-05 | 129000 |
| B3 | no binding (tested: typically 0.43-2000 nM) | – | – | – | – | – | – |
| B4 | – | – | – | – | 6.26 | 0.000832 | 133000 |
